Drawing on the supplement of paper PMC10126150, this text covers switch fluorescence ratio for 120 sequences.

± gives the standard deviation of the averaged measurements.

This data set relates to ATP. As to the kind of experiment: switch fluorescence ratio, 500 uM ATP over buffer (Cy3 cluster intensity, sum of 5 cycles each) (fold (ratio)); higher = stronger signal-on switching upon ATP binding; sequences stand for … in TCGTCGGCAGCGTCAGATGTGTATAAGAGACAGTTTTTTTTTTTTTTTTTTTTTTTTT…TC. Conditions: aptamer strand: ATP DNA aptamer (quencher-CACCTGGGGGAGTATTGCGGAGGAAGG + anchor), 100 nM annealed; ATP concentration: 500 uM. In a few lines:
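Exposure to 500 uM ATP lasted 15 min at 22 °C before imaging, and a selection-buffer image was taken beforehand, for Cy3-labelled switching-strand clusters on a modified Illumina MiSeq flow-cell annealed to 100 nM quencher-labelled ATP aptamer. Five buffer/ATP cycles were run with NaOH stripping and re-annealing between them. The fluorescence ratio per cluster is summed target-cycle over summed buffer-cycle Cy3 intensity, averaged per switch-domain sequence. Clusters outside 100-1000 RFU were excluded.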
Consider TTGCTGATGC, for which the switch fluorescence ratio came to 1.02 ± 0.039.
The result for TAGAGGAGTG reads 0.9599 ± 0.0086.
On to CCCGATGTTA, for which the switch fluorescence ratio turned out to be 0.9973 ± 0.0041.
With ACGGTCTTGG, the switch fluorescence ratio stood at 0.999 ± 0.015.
For the sequence TGGTTAAAAT, the switch fluorescence ratio was found to be 1 ± 0.025.
The result for GTCTTCATGG reads 0.989 ± 0.02.
Consider GGAATTTGGA, for which the switch fluorescence ratio was determined as 0.983 ± 0.057.
As for TCTGGGTATG, the figure is 0.988 ± 0.016; as for GGTCTGTTTG, 0.97 ± 0.025; as for GTTCGTGTGG, 0.987 ± 0.028.
Consider GTACTATCTC, for which the switch fluorescence ratio came to 0.998 ± 0.046.
Regarding TTATTTTCAG, the switch fluorescence ratio came out at 0.996 ± 0.053.
For TTAGATCATG, the switch fluorescence ratio was determined as 1.01 ± 0.023.
With AAAAGGGTAG, the switch fluorescence ratio was 1.01 ± 0.018.
For the sequence TCATTAGGGG, the switch fluorescence ratio turned out to be 0.994 ± 0.041.
Consider CCTTTTGAAC, for which the switch fluorescence ratio came to 1.04 ± 0.028.
In the case of TGAAGAGGAT, the switch fluorescence ratio is 1.09 ± 0.15.
Turning to AGGAGATACT, the switch fluorescence ratio was found to be 1.09 ± 0.15.
Turning to TTGCTATACG, the switch fluorescence ratio was 1.2 ± 0.13.
GGAAATTCAT: the switch fluorescence ratio turned out to be 1.36 ± 0.54.
On to CTGATGTTTT, for which the switch fluorescence ratio was 0.9747 ± 0.0063.
For AAAGTATTTT, the switch fluorescence ratio amounted to 1.03 ± 0.067.
As to TCGTTATGTG, the switch fluorescence ratio was found to be 0.9829 ± 0.0085.
The result for TATTAAGGGA reads 0.995 ± 0.012; that for CGGGTTAATG, 0.986 ± 0.019; that for AGGGAGGATC, 1.02 ± 0.017.
For the sequence ATTCCCGGGG, the switch fluorescence ratio was 1.06 ± 0.059.
The result for CGGGCAGGGC reads 1.04 ± 0.019; that for CGGGGGGCGG, 0.986 ± 0.032.
Turning to TACAAGCTGT, the switch fluorescence ratio amounted to 1.01 ± 0.014.
For CAGTCAGAGT, the switch fluorescence ratio was determined as 0.985 ± 0.023.
In the case of AGGGGTCTTA, the switch fluorescence ratio stood at 0.978 ± 0.02.
AAAATGGGCT: the switch fluorescence ratio stood at 0.996 ± 0.038.
In the case of CACCGGTTGG, the switch fluorescence ratio was 1.014 ± 0.0044.
On to CGCCAGAAGG, for which the switch fluorescence ratio amounted to 0.9883 ± 0.0036.
As for TAAGGGCGGT, the switch fluorescence ratio was 0.957 ± 0.032.
As for TGTTGAAGGT, the figure is 1.02 ± 0.029; as for CTTAGTTGGT, 0.965 ± 0.012.
TCGTTTTCCT: the switch fluorescence ratio was 1.02 ± 0.043.
As for GATGGGGGCA, the figure is 1 ± 0.086; as for CAATGCAGTG, 1 ± 0.019; as for AGCCTAATGG, 0.995 ± 0.041.
Take GGTGATTTGT: the switch fluorescence ratio was 1 ± 0.03.
Regarding GGGTTGGATG, the switch fluorescence ratio amounted to 0.996 ± 0.025.
Consider TCTGTTGAAT, for which the switch fluorescence ratio stood at 1.01 ± 0.072.
AGCGGGGCGT: the switch fluorescence ratio stood at 1.01 ± 0.014.
CCATGTGAAG: the switch fluorescence ratio worked out at 0.992 ± 0.027.
On to AAGTCAGGAG, for which the switch fluorescence ratio stood at 1.05 ± 0.07.
Consider GCTTGTGACG, for which the switch fluorescence ratio turned out to be 1.02 ± 0.058.
AGTTTTAGCT: the switch fluorescence ratio turned out to be 0.984 ± 0.029.
As to TGATGGAGGG, the switch fluorescence ratio was 0.997 ± 0.026.
Take TTTGGCTTGC: the switch fluorescence ratio worked out at 1.01 ± 0.042.
For AAATTGGCAT, the switch fluorescence ratio was determined as 0.993 ± 0.028.
As for AGGTAGTTTG, the figure is 0.9979 ± 0.0018; as for TCGCTTGTTG, 1.03 ± 0.022.
As for TCTTGGAGAA, the switch fluorescence ratio came to 1.05 ± 0.06.
Consider ATAGAAGGTG, for which the switch fluorescence ratio was 1.43 ± 0.025.
With TTTCATAGTT, the switch fluorescence ratio was 0.954 ± 0.017.
For CAGGGTTCGT, the switch fluorescence ratio stood at 0.9894 ± 0.0081.
As for TGGAAGAGGG, the figure is 1 ± 0.018; as for TTATTTTTAA, 0.9809 ± 0.0038.
The result for TTGCGAGTC reads 0.996 ± 0.062.
As for TTGCAAGGCG, the switch fluorescence ratio came to 1 ± 0.062.
As for CAGTGAAAAA, the figure is 1.06 ± 0.089; as for GTTGGGCGGG, 0.991 ± 0.035.
On to AAGATACGAA, for which the switch fluorescence ratio amounted to 1.04 ± 0.019.
Regarding AGGAGATTTT, the switch fluorescence ratio amounted to 0.957 ± 0.032.
Turning to ATTTCGATGT, the switch fluorescence ratio was found to be 1.03 ± 0.031.
Turning to ATGATGTGGA, the switch fluorescence ratio came to 1.01 ± 0.077.
As to ATGGCCGAGT, the switch fluorescence ratio stood at 1.03 ± 0.038.
Regarding GGGAAACGGG, the switch fluorescence ratio was found to be 0.995 ± 0.011.
The result for TGAGATTAGT reads 1.01 ± 0.026; that for GGGAAATGGG, 0.9747 ± 0.0087.
On to GTTTGAACGG, for which the switch fluorescence ratio is 0.993 ± 0.018.
Regarding CAAGTTTTGT, the switch fluorescence ratio worked out at 1.01 ± 0.012.
Take GAGATGTGGT: the switch fluorescence ratio was determined as 0.985 ± 0.031.
For GCCCTGGAAC, the switch fluorescence ratio was found to be 1.01 ± 0.022.
As for TTGCCTAAGC, the switch fluorescence ratio turned out to be 0.974 ± 0.016.
For AGTCCTTTTT, the switch fluorescence ratio was found to be 0.979 ± 0.021.
As for GCGGGACTGG, the switch fluorescence ratio was 1.04 ± 0.034.
Consider GATATATGCT, for which the switch fluorescence ratio was found to be 1 ± 0.013.
Take TGGGGACGGT: the switch fluorescence ratio was found to be 1.01 ± 0.012.
As for TTGGAGCGTG, the figure is 1.003 ± 0.0015; as for ATGAACGTTT, 1.2 ± 0.28.
On to TAGCGGGCCG, for which the switch fluorescence ratio came out at 1.01 ± 0.039.
Consider ACTAGGGTTG, for which the switch fluorescence ratio stood at 0.993 ± 0.02.
Consider TTGGTGCGGA, for which the switch fluorescence ratio is 0.975 ± 0.056.
The result for TATGAACTGC reads 1.04 ± 0.041; that for GCTCCCGGGG, 1.24 ± 0.12; that for AGGTGATGGT, 0.997 ± 0.023.
Consider TGGTTTTGCC, for which the switch fluorescence ratio was determined as 1.005 ± 0.0082.
Regarding ATCTGGTCAT, the switch fluorescence ratio turned out to be 0.972 ± 0.016.
Turning to CCGTAGGAGG, the switch fluorescence ratio came out at 1 ± 0.021.
As to ATGATCCGTT, the switch fluorescence ratio worked out at 1.001 ± 0.0059.
Take GAGGGTACGG: the switch fluorescence ratio amounted to 1.037 ± 0.0092.
For the sequence CCAGATGGCA, the switch fluorescence ratio worked out at 1.02 ± 0.082.
Regarding AACACAGGTA, the switch fluorescence ratio came out at 1.06 ± 0.013.
The result for ACCGCTGTGG reads 1.06 ± 0.019.
The result for GTTTGAGATA reads 0.971 ± 0.035; that for TTCTAGGAAT, 1.02 ± 0.059.
As for GTTGTGTGGG, the figure is 0.985 ± 0.035; as for TTGGAAAGGG, 0.985 ± 0.016; as for GGGGCTTAGT, 1.03 ± 0.017.
Regarding TCCCAGAACG, the switch fluorescence ratio was determined as 1.062 ± 0.0077.
For GGTTTAAAGT, the switch fluorescence ratio amounted to 1.01 ± 0.014.
With AATAAAATTT, the switch fluorescence ratio turned out to be 1.04 ± 0.022.
The result for ATGTAGCGAC reads 1.44 ± 0.39.
Consider TCTATTTGCA, for which the switch fluorescence ratio stood at 1 ± 0.042.
In the case of ATAGATTGTT, the switch fluorescence ratio worked out at 1.39 ± 0.59.
The result for ATTGACCCCT reads 1.08 ± 0.015; that for AGGGGAGGGG, 1.02 ± 0.042; that for TCGCTCACGG, 1.03 ± 0.021.
As for CACTGAGCTG, the figure is 1.07 ± 0.077; as for CCAGGGCGTG, 1.02 ± 0.069.
Consider AACCAATCGT, for which the switch fluorescence ratio was determined as 1.03 ± 0.041.
In the case of GCCCAAGGA, the switch fluorescence ratio was determined as 1.028 ± 0.0062.
As for AAGGGGTGTA, the figure is 0.985 ± 0.04.
Take GAGACGGAAT: the switch fluorescence ratio turned out to be 1.06 ± 0.025.
As for GGGTGCTGTG, the switch fluorescence ratio was 1 ± 0.034.
As for GCTATTATAT, the figure is 1.02 ± 0.015.
